Measured values from article PMC5495335.

Biological target: T1, CD6 lymphocyte surface receptor (human (endogenous in PBMC)) (UniProt P30203)
T1 sequence: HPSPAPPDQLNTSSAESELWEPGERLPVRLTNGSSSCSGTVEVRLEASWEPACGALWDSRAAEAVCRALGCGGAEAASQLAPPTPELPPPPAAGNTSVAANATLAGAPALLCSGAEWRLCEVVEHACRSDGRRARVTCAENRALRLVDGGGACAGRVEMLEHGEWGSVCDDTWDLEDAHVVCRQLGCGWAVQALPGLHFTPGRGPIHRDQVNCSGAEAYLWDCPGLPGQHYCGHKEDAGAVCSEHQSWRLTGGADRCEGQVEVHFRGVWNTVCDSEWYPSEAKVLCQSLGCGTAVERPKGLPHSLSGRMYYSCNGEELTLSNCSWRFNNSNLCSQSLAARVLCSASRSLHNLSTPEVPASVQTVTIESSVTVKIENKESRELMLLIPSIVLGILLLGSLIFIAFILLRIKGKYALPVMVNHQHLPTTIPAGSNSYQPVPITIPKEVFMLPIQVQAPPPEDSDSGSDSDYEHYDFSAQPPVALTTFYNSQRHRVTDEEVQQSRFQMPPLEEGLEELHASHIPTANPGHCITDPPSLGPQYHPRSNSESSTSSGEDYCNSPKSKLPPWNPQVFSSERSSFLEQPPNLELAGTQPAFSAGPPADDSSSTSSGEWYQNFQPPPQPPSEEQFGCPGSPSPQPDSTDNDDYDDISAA

tyrosine phosphorylation of CD6 immunoprecipitated from human PBMC plated on plate-bound ALCAM (immunoblot for p-Tyr): > 2.5 fold
B1: Recombinant Human ALCAM/CD166 Fc Chimera (Fc fusion)
chain: WYTVNSAYGDTIIIPCRLDVPQNLMFGKWKYEKPDGSPVFIAFRSSTKKSVQYDDVPEYKDRLNLSENYTLSISNARISDEKRFVCMLVTEDNVFEAPTIVKVFKQPSKPEIVSKALFLETEQLKKLGDCISEDSYPDGNITWYRNGKVLHPLEGAVVIIFKKEMDPVTQLYTMTSTLEYKTTKADIQMPFTCSVTYYGPSGQKTIHSEQAVFDIYYPTEQVTIQVLPPKNAIKEGDNITLKCLGNGNPPPEEFLFYLPGQPEGIRSSNTYTLTDVRRNATGDYKCSLIDKKSMIASTAITVHYLDLSLNPSGEVTRQIGDALPVSCTISASRNATVVWMKDNIRLRSSPSFSSLHYQDAGNYVCETALQEVEGLKKRESLTLIVEGKPQIKMTKKTDPSGLSKTIICHVEGFPKPAIQWTITGSGSVINQTEESPYINGRYYSKIIISPEENVTLTCTAENQLERTVNSLNVSAISIPEHDEADEISDENREKVNDQAK
